Assay results from publication PMC12728192, “The dynamic lateral gate of the mitochondrial β-barrel biogenesis machinery is blocked by darobactin A” (Nature Communications, 2025).
Several values for one entry are separate records, joined by “and”; a condition that tells them apart may be missing. Equal entries are not always repeated. Where two headings read alike, the source gives them in different places.

Legend:
[1] = biological target: Thermothelomyces thermophilus SAM complex (10xHis-TEV-Sam50, Sam35 (no tag), TwinStrep-TEV-GG-Sam37) (Thermothelomyces thermophilus); assay: MST; SAM complex labelled with Monolith RED-tris-NTA 2nd Generation, constant at 25 nM; serial dilution of peptide; size-exclusion buffer (20 mM HEPES pH 8.0, 150 mM NaCl, 0.02% GDN); Monolith NT.115, premium capillaries; MO.Affinity Analysis; one Kd for each biological replicate from 2-3 technical replicates
[2] = biological target: Thermothelomyces thermophilus SAM complex (sorting and assembly machinery complex; Sam50:Sam35:Sam37, monomer) (Thermothelomyces thermophilus); assay: MST; SAM complex labelled with Monolith RED-tris-NTA 2nd Generation, constant at 25 nM; serial dilution of peptide; size exclusion buffer (20 mM HEPES pH 8.0, 150 mM NaCl, 0.02% GDN); Monolith NT.115, premium capillaries

Row | Kd ([1]; mean of biological replicates) [µM] | Kd [2] | Kd [1] [µM] | Substance
1 | 0.228 | 0.296 µM and 0.0956 to 0.377 µM |  | darobactin A (peptide)
2 |  | 490 to 1200 µM | > 1170 | linear darobactin (peptide)
